According to article PMC4972137 (The EMBO Journal, 2016):
Changes are numbered by the printed parent chain. In names and notes the source's numbering stands.

B1: NavMs sodium channel pore protein (wild-type pore of NavMs from M. marinus MC-1 with its complete C-terminal domain) (domain or fragment, Magnetococcus marinus MC-1)
chain: GVGSVAALLTVVFYIAAVMATNLYGATFPEWFGDLSKSLYTLFQVMTLESWSMGIVRPVMNVHPNAWVFFIPFIMLTTFTVLNLFIGIIVDAMAITKEQEEEAKTGHHQEPISQTLLHLGDRLDRIEKQLAQNNELLQRQQPQKK
B2: NavMs sodium channel pore protein, E178D selectivity filter mutant (domain or fragment, Magnetococcus marinus MC-1)
chain: B1 chain with E49D

Target: the molecule itself
Experiment: crystal structure; NavMs pore crystals grown in the presence of sodium ions; open conformation; four identical chains arranged in two half-tetramers, with the tetramers completed by crystal symmetry

Protein | stoichiometry N
B1 | 4
B2 | 4
